From the supplement of paper PMC5998384

Assays:
HeLa Kyoto [1] = test: solubility change mitosis vs G1/S (difference of NP-40 vs SDS log2 ratios) (log2 ratio difference); higher = more soluble in mitosis
HeLa Kyoto [2] = test: melting temperature (median over replicates), in situ; higher = more thermally stable
HeLa Kyoto [3] = test: thermal stability score vs G1/S (z-score of summed log2 fold changes over temperatures); higher = more thermally stable than in G1/S
[4] = cell cycle stage: early G1 (4.5 h after nocodazole release)
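For melting temperature (median over replicates), in situ in this document: HeLa Kyoto cells synchronized by double thymidine or nocodazole block, proteins quantified by TMT10plex mass spectrometry, three independent biological replicates.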
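For solubility change mitosis vs G1/S (difference of NP-40 vs SDS log2 ratios) in this document: synchronized HeLa Kyoto cells (double thymidine block for G1/S, nocodazole release for mitosis), protein amounts in NP-40 versus SDS lysates quantified by mass spectrometry, three biological replicates.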
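For thermal stability score vs G1/S (z-score of summed log2 fold changes over temperatures) in this document: synchronized HeLa Kyoto cells, proteins quantified by TMT10plex mass spectrometry, three biological replicates, mitosis taken 0.5 h after nocodazole release, G1/S directly after double thymidine block.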

For ARPC2, the “solubility change mitosis (log2)” value (HeLa Kyoto [1]) was -0.0639.
With BPTF the “solubility change mitosis (log2)” value (HeLa Kyoto [1]) was -0.0311.
With MRPL41 the “solubility change mitosis (log2)” value (HeLa Kyoto [1]) was 0.232.
For RPL7A, the “solubility change mitosis (log2)” value (HeLa Kyoto [1]) was 0.753.
For MRPS22, the “solubility change mitosis (log2)” value (HeLa Kyoto [1]) was -0.0527.
With UBA52 the “solubility change mitosis (log2)” value (HeLa Kyoto [1]) was 0.558.
With DNPEP the “solubility change mitosis (log2)” value (HeLa Kyoto [1]) was -0.0236.
With BTF3 the “solubility change mitosis (log2)” value (HeLa Kyoto [1]) was 0.172.
For CDK2, the “solubility change mitosis (log2)” value (HeLa Kyoto [1]) was -0.211.
For MRPS6, the “solubility change mitosis (log2)” value (HeLa Kyoto [1]) was 0.0185.
RPS8 was tested, and the “solubility change mitosis (log2)” value (HeLa Kyoto [1]) was 0.735.
With MRPL30 the “solubility change mitosis (log2)” value (HeLa Kyoto [1]) was 0.00936.
In the case of TFRC, the “solubility change mitosis (log2)” value (HeLa Kyoto [1]) is reported as -0.13.
With PSEN1 the “solubility change mitosis (log2)” value (HeLa Kyoto [1]) was 0.045.
In the case of MRPL13, the “solubility change mitosis (log2)” value (HeLa Kyoto [1]) is reported as -0.0691.
In the case of MRPL33, the “solubility change mitosis (log2)” value (HeLa Kyoto [1]) is reported as -0.0245.
WDR5 was tested, and the “solubility change mitosis (log2)” value (HeLa Kyoto [1]) was -0.102.
TPRG1L was tested, and the “solubility change mitosis (log2)” value (HeLa Kyoto [1]) was -0.205.
With SLIRP the “solubility change mitosis (log2)” value (HeLa Kyoto [1]) was 0.0681.
In the case of RPS18, the “solubility change mitosis (log2)” value (HeLa Kyoto [1]) is reported as 0.385.
SCFD1 was tested, and the “solubility change mitosis (log2)” value (HeLa Kyoto [1]) was -0.0937.
For RPL19, the “solubility change mitosis (log2)” value (HeLa Kyoto [1]) was 0.873.
MRPS31 was tested, and the “solubility change mitosis (log2)” value (HeLa Kyoto [1]) was -0.0986.
MRPL20 was tested, and the “solubility change mitosis (log2)” value (HeLa Kyoto [1]) was -0.0687.
For FSCN1, the “solubility change mitosis (log2)” value (HeLa Kyoto [1]) was -0.135.
With MRPL43 the “solubility change mitosis (log2)” value (HeLa Kyoto [1]) was 0.445.
In the case of MRPL9, the “solubility change mitosis (log2)” value (HeLa Kyoto [1]) is reported as -0.0572.
In the case of RPL26L1, the “solubility change mitosis (log2)” value (HeLa Kyoto [1]) is reported as 0.994.
In the case of MRPS24, the “solubility change mitosis (log2)” value (HeLa Kyoto [1]) is reported as -0.0858.
For RPL13A, the “solubility change mitosis (log2)” value (HeLa Kyoto [1]) was 0.619.
In the case of RPL9, the “solubility change mitosis (log2)” value (HeLa Kyoto [1]) is reported as 0.502.
In the case of FAM175B, the “solubility change mitosis (log2)” value (HeLa Kyoto [1]) is reported as -0.114.
RPL22 was tested, and the “solubility change mitosis (log2)” value (HeLa Kyoto [1]) was 0.576.
With RPS29 the “solubility change mitosis (log2)” value (HeLa Kyoto [1]) was 0.655.
RPS2 was tested, and the “solubility change mitosis (log2)” value (HeLa Kyoto [1]) was 0.389.
For RPS13, the “solubility change mitosis (log2)” value (HeLa Kyoto [1]) was 0.484.
MRPS10 was tested, and the “solubility change mitosis (log2)” value (HeLa Kyoto [1]) was -0.0122.
In the case of VPS29, the “solubility change mitosis (log2)” value (HeLa Kyoto [1]) is reported as -0.224.
For EEF2, the “solubility change mitosis (log2)” value (HeLa Kyoto [1]) was -0.164.
For MRPS21, the “solubility change mitosis (log2)” value (HeLa Kyoto [1]) was 0.0482.
In the case of “MEKWYLMTVVVLIGLTVRWTVSLNSYSGAGKPPMFGDYEAQRHWQEITFNLPVKQWYFNSSDNNLQYWGLDYPPLTAYHSLLCAYVAKFINPDWIALHTSRGYESQAHKLFMRTTVLIADLLIYIPAVVLYCCCLKEISTKKKIANALCILLYPGLILIDYGHFQYNSVSLGFALWGVLGISCDCDLLGSLAFCLAINYKQMELYHALPFFCFLLGKCFKKGLKGKGFVLLVKLACIVVASFVLCWLPFFTEREQTLQVLRRLFPVDRGLFEDKVANIWCSFNVFLKIKDILPRHIQLIMSFCSTFLSLLPACIKLILQPSSKGFKFTLVSCALSFFLFSFQVHEKSILLVSLPVCLVLSEIPFMSTWFLLVSTFSMLPLLLKDELLMPSVVTTMAFFIACVTSFSIFEKTSEEELQLKSFSISVRKYLPCFTFLSRIIQYLFLISVITMVLLTLMTVTLDPPQKLPDLFSVLVCFVSCLNFLFFLVYFNIIIMWDSKSGRNQKKIS [ALG6]”, the melting temperature (HeLa Kyoto [2]; cell cycle stage: G1/S) is reported as 54.2 °C, the melting temperature (HeLa Kyoto [2]; cell cycle stage: mitosis) is reported as 54.3 °C and the thermal stability score (HeLa Kyoto [3]; [4]) is reported as 0.428. The thermal stability score (HeLa Kyoto [3]; cell cycle stage: mitosis) was -1.17.
With MRPL32 the “solubility change mitosis (log2)” value (HeLa Kyoto [1]) was 0.35.
RPL35 was tested, and the “solubility change mitosis (log2)” value (HeLa Kyoto [1]) was 1.27.
SNCA was tested, and the “solubility change mitosis (log2)” value (HeLa Kyoto [1]) was 0.157.
For STAM2, the “solubility change mitosis (log2)” value (HeLa Kyoto [1]) was -0.173.
For RPS9, the “solubility change mitosis (log2)” value (HeLa Kyoto [1]) was 0.434.
MRPL2 was tested, and the “solubility change mitosis (log2)” value (HeLa Kyoto [1]) was 0.0937.
RPL18 was tested, and the “solubility change mitosis (log2)” value (HeLa Kyoto [1]) was 0.797.
In the case of “MMKLKSNQTRTYDGDGYKKRAACLCFRSESEEEVLLVSSSRHPDRWIVPGGGMEPEEEPSVAAVREVCEEAGVKGTLGRLVGIFENQERKHRTYVYVLIVTEVLEDWEDSVNIGRKREWFKIEDAIKVLQYHKPVQASYFETLRQGYSANNGTPVVATTYSVSAQSSMSGIR [NUDT3]”, the melting temperature (HeLa Kyoto [2]; cell cycle stage: G1/S) is reported as 53.4 °C, the melting temperature (HeLa Kyoto [2]; cell cycle stage: mitosis) is reported as 54.7 °C and the thermal stability score (HeLa Kyoto [3]; [4]) is reported as -1.86. The thermal stability score (HeLa Kyoto [3]; cell cycle stage: mitosis) was -1.36.
“MTAEETVNVKEVEIIKLILDFLNSKKLHISMLALEKESGVINGLFSDDMLFLRQLILDGQWDEVLQFIQPLECMEKFDKKRFRYIILKQKFLEALCVNNAMSAEDEPQHLEFTMQEAVQCLHALEEYCPSKDDYSKLCLLLTLPRLTNHAEFKDWNPSTARVHCFEEACVMVAEFIPADRKLSEAGFKASNNRLFQLVMKGLLYECCVEFCQSKATGEEITESEVLLGIDLLCGNGCDDLDLSLLSWLQNLPSSVFSCAFEQKMLNIHVDKLLKPTKAAYADLLTPLISKLSPYPSSPMRRPQSADAYMTRSLNPALDGLTCGLTSHDKRISDLGNKTSPMSHSFANFHYPGVQNLSRSLMLENTECHSIYEESPERDTPVDAQRPIGSEILGQSSVSEKEPANGAQNPGPAKQEKNELRDSTEQFQEYYRQRLRYQQHLEQKEQQRQIYQQMLLEGGVNQEDGPDQQQNLTEQFLNRSIQKLGELNIGMDGLGNEVSALNQQCNGSKGNGSNGSSVTSFTTPPQDSSQRLTHDASNIHTSTPRNPGSTNHIPFLEESPCGSQISSEHSVIKPPLGDSPGSLSRSKGEEDDKSKKQFVCINILEDTQAVRAVAFHPAGGLYAVGSNSKTLRVCAYPDVIDPSAHETPKQPVVRFKRNKHHKGSIYCVAWSPCGQLLATGSNDKYVKVLPFNAETCNATGPDLEFSMHDGTIRDLAFMEGPESGGAILISAGAGDCNIYTTDCQRGQGLHALSGHTGHILALYTWSGWMIASGSQDKTVRFWDLRVPSCVRVVGTTFHGTGSAVASVAVDPSGRLLATGQEDSSCMLYDIRGGRMVQSYHPHSSDVRSVRFSPGAHYLLTGSYDMKIKVTDLQGDLTKQLPIMVVGEHKDKVIQCRWHTQDLSFLSSSADRTVTLWTYNG [WDR47]” gave a melting temperature (HeLa Kyoto [2]; cell cycle stage: G1/S) of 54.4 °C, a melting temperature (HeLa Kyoto [2]; cell cycle stage: mitosis) of 52.6 °C and a thermal stability score (HeLa Kyoto [3]; [4]) of -2.39. For the same substance, the thermal stability score (HeLa Kyoto [3]; cell cycle stage: mitosis) was -1.92.
“MARAAPLLAALTALLAAAAAGGDAPPGKIAVVGAGIGGSAVAHFLQQHFGPRVQIDVYEKGTVGGRLATISVNKQHYESGAASFHSLSLHMQDFVKLLGLRHRREVVGRSAIFGGEHFMLEETDWYLLNLFRLWWHYGISFLRLQMWVEEVMEKFMRIYKYQAHGYAFSGVEELLYSLGESTFVNMTQHSVAESLLQVGVTQRFIDDVVSAVLRASYGQSAAMPAFAGAMSLAGAQGSLWSVEGGNKLVCSGLLKLTKANVIHATVTSVTLHSTEGKALYQVAYENEVGNSSDFYDIVVIATPLHLDNSSSNLTFAGFHPPIDDVQGSFQPTVVSLVHGYLNSSYFGFPDPKLFPFANILTTDFPSFFCTLDNICPVNISASFRRKQPQEAAVWRVQSPKPLFRTQLKTLFRSYYSVQTAEWQAHPLYGSRPTLPRFALHDQLFYLNALEWAASSVEVMAVAAKNVALLAYNRWYQDLDKIDQKDLMHKVKTEL [PCYOX1L]” gave a melting temperature (HeLa Kyoto [2]; cell cycle stage: G1/S) of 56.6 °C, a melting temperature (HeLa Kyoto [2]; cell cycle stage: mitosis) of 56.2 °C and a thermal stability score (HeLa Kyoto [3]; [4]) of 0.689. The thermal stability score (HeLa Kyoto [3]; cell cycle stage: mitosis) was 1.38.
Work on “MEEHGVTQTEHMATIEAHAVAQQVQQVHVATYTEHSMLSADEDSPSSPEDTSYDDSDILNSTAADEVTAHLAAAGPVGMAAAAAVATGKKRKRPHVFESNPSIRKRQQTRLLRKLRATLDEYTTRVGQQAIVLCISPSKPNPVFKVFGAAPLENVVRKYKSMILEDLESALAEHAPAPQEVNSELPPLTIDGIPVSVDKMTQAQLRAFIPEMLKYSTGRGKPGWGKESCKPIWWPEDIPWANVRSDVRTEEQKQRVSWTQALRTIVKNCYKQHGREDLLYAFEDQQTQTQATATHSIAHLVPSQTVVQTFSNPDGTVSLIQVGTGATVATLADASELPTTVTVAQVNYSAVADGEVEQNWATLQGGEMTIQTTQASEATQAVASLAEAAVAASQEMQQGATVTMALNSEAAAHAVATLAEATLQGGGQIVLSGETAAAVGALTGVQDANGLVQIPVSMYQTVVTSLAQGNGPVQVAMAPVTTRISDSAVTMDGQAVEVVTLEQ [NRF1]” yielded a melting temperature (HeLa Kyoto [2]; cell cycle stage: mitosis) of 51.4 °C, a thermal stability score (HeLa Kyoto [3]; [4]) of -0.324 and a thermal stability score (HeLa Kyoto [3]; cell cycle stage: mitosis) of 0.518.
With “MPGRSCVALVLLAAAVSCAVAQHAPPWTEDCRKSTYPPSGPTYRGAVPWYTINLDLPPYKRWHELMLDKAPVLKVIVNSLKNMINTFVPSGKIMQVVDEKLPGLLGNFPGPFEEEMKGIAAVTDIPLGEIISFNIFYELFTICTSIVAEDKKGHLIHGRNMDFGVFLGWNINNDTWVITEQLKPLTVNLDFQRNNKTVFKASSFAGYVGMLTGFKPGLFSLTLNERFSINGGYLGILEWILGKKDVMWIGFLTRTVLENSTSYEEAKNLLTKTKILAPAYFILGGNQSGEGCVITRDRKESLDVYELDAKQGRWYVVQTNYDRWKHPFFLDDRRTPAKMCLNRTSQENISFETMYDVLSTKPVLNKLTVYTTLIDVTKGQFETYLRDCPDPCIGW [ASAH1]” the melting temperature (HeLa Kyoto [2]; cell cycle stage: G1/S) was 55.8 °C, the melting temperature (HeLa Kyoto [2]; cell cycle stage: mitosis) was 55.9 °C and the thermal stability score (HeLa Kyoto [3]; [4]) was -1.25. For the same substance, the thermal stability score (HeLa Kyoto [3]; cell cycle stage: mitosis) was -2.17.
“MQPPGPPPAYAPTNGDFTFVSSADAEDLSGSIASPDVKLNLGGDFIKESTATTFLRQRGYGWLLEVEDDDPEDNKPLLEELDIDLKDIYYKIRCVLMPMPSLGFNRQVVRDNPDFWGPLAVVLFFSMISLYGQFRVVSWIITIWIFGSLTIFLLARVLGGEVAYGQVLGVIGYSLLPLIVIAPVLLVVGSFEVVSTLIKLFGVFWAAYSAASLLVGEEFKTKKPLLIYPIFLLYIYFLSLYTGV [YIPF4]” showed a melting temperature (HeLa Kyoto [2]; cell cycle stage: G1/S) of 57.7 °C, a melting temperature (HeLa Kyoto [2]; cell cycle stage: mitosis) of 56.1 °C and a thermal stability score (HeLa Kyoto [3]; [4]) of -0.481. It also gave a thermal stability score (HeLa Kyoto [3]; cell cycle stage: mitosis) of -2.96.
